Test results published in publication PMC6277172 (Protein Engineering, Design and Selection, 2018).

Target: N-terminal domain of MDM2 (M6-N125) (UniProt Q00987 6-125)
Experiment: fluorescence polarisation

Sequence of N-terminal domain of MDM2 (M6-N125) (Q00987 6-125): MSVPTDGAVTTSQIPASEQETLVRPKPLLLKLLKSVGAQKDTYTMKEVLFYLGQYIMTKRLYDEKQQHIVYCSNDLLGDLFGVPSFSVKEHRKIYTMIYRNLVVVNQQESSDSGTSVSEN

binding result: binds
Binder: {FAM}-RFMDYWEGL-NH2 [FAM labeled 12-1 peptide]
